The text below walks through data of paper PMC7791793.

The target in assay [1] is human ether-à-go-go-related gene potassium channel 1 (hERG), stable HEK 293 cell line (human) (UniProt Q12809).
Assay [2] concerns the target human ether-à-go-go-related gene potassium channel 1 (hERG), wild type, in Xenopus laevis oocytes (human) (UniProt Q12809).
Assay [3] has the same target. Briefly: two-electrode voltage clamp (fraction of uninhibited tail currents). In general terms: In two-electrode clamp one electrode senses voltage and the other passes current.

In the case of “recombinant APETx1 (wild type) (peptide)”, in assay [1], the toxin-induced shift of the half-maximal activation voltage (ΔV1/2) of hERG, whole-cell patch clamp, APETx1 0.1-10 μM; value at 10 μM was 23.9 mV. Besides, the toxin-induced shift of the half-maximal activation voltage (ΔV1/2) of hERG, TEVC recordings in oocytes, APETx1 0.1-10 μM; value at 10 μM in assay [2] came to 21.9 mV. In assay [3], the apparent Kd, model (A): four equivalent and independent binding sites per channel, fractional toxin-sensitive current came out at 1.2 µM; the apparent Kd, model (B): four equivalent and independent binding sites per channel, fully toxin-sensitive current is 1.7 µM; the apparent Kd, model (C): one binding site per channel, fractional toxin-sensitive current amounted to 0.23 µM.
